In publication PMC3568146, “Very Late Antigen-4 (α4β1 Integrin) Targeted PET Imaging of Multiple Myeloma” (PLoS ONE, 2013):
“Also recorded” adds a separate entry of the source. Where two headings read alike, the source gives them in different places.

Key:
5TGM1 cells = test: In vitro cell uptake assay, 5TGM1 cells; format: cell-based, mouse
Procedure: (§1) Cell uptake assays were performed in murine 5TGM1 and human RPMI-8226 myeloma cells using ^64Cu-CB-TE1A1P-LLP2A to determine the sum of cell internalized and surface-bound fractions. Cells were grown in Iscoves MDM until 60−75% confluent, harvested by mechanical dissociation, and re-suspended in the binding medium (phosphate buffered saline [PBS], 0.1% bovine serum albumin [BSA] and 1 mM Mn^2+) in 1.5 mL microfuge tubes. A solution of ^64Cu-CB-TE1A1P-LLP2A (0.1 nM) was added to the cell suspension. The samples were incubated for 60 min in a cell incubator (37°C, 5% CO2). To determine the in vitro VLA-4 binding specificity of ^64Cu-CB-TE1A1P-LLP2A, samples were co-incubated with ∼200-fold excess of the unlabeled ligand, LLP2A. After incubation, the samples were centrifuged at 1,500 rpm for 5 min, and the radioactive medium was removed. Cell pellets were rinsed with ice cold binding buffer (500 µL) and centrifuged at 1,500 rpm for 3 min (2 X). The radioactivity in cell pellets was measured in a well counter (Packard II gamma counter).

5TGM1 tumors [1] = test: Tissue biodistribution in 5TGM1 tumor-bearing KaLwRij mice; format: in vivo, mouse; settings: 2 h, co-administered ~200-fold excess cold LLP2A, p<0.05, N = 4
Procedure: (§2) KaLwRij mice (from Dr. Claire M. Edwards, Vanderbilt University Medical Center Cancer Biology, Nashville, TN) were housed in ventilated cage racks and allowed food and water. 5TGM1 cells in log phase growth were prepared for injection by precipitation in a centrifuge followed by a wash step with sterile endotoxin-free PBS. Finally, the cells were re-suspended in endotoxin-free PBS at a concentration of 1×10^6 cells/mL and injected with or without matrigel, respectively, in the nape of the neck subcutaneously (s.c.) or intraperitoneally (i.p.) in a 100 µL volume in 3–5 week old mice. The tumors were allowed to grow for an average of 10 d.
(§3) 5TGM1 tumor bearing mice were sacrificed at 2 or 24 h after the injection of the radiopharmaceutical, ^64Cu-CB-TE1A1P-LLP2A. Blood, marrow, fat, heart, stomach, intestines, lungs, liver, spleen, kidneys, muscle, bone, pancreas, and tumor were harvested, weighed, and counted in the γ-counter. For the in vivo blocking studies, an additional group of mice was injected with the radiopharmaceutical premixed with ∼200-fold excess of LLP2A to serve as a blocking agent and sacrificed at the respective time point. The percent injected dose per gram of tissue (%ID/g) was determined by decay correction of the radiopharmaceutical for each sample normalized to a standard of known weight, which was representative of the injected dose.
(§4) Figure 3 Tissue biodistribution of ^64Cu-CB-TE1A1P-LLP2A in 5TGM1 s.c. tumor mice. Biodistribution of ^64Cu-CB-TE1A1P-LLP2A in 5TGM1 s.c. tumor mice (black bars). The open bars represent biodistribution in the presence of non-radioactive blocking agent (∼ 200 fold excess LLP2A). Mice were injected with ^64Cu-CB-TE1A1P-LLP2A (0.01 µg, 0.2 MBq, SA: 37 MBq/µg) and sacrificed at 2 h post injection. N = 4 mice/group.

[2] = as above; format: in vivo, mouse; settings: mouse, iv, 0.01 ug, total radioactivity, 2 h post injection, s.c. 5TGM1 tumor KaLwRij mice, mean±SD, N = 4
Procedure: as §2, §3, §4

5TGM1 tumors [3] = test: Small animal PET/CT imaging in KaLwRij mice bearing 5TGM1 tumors; format: in vivo, mouse; settings: 2 h post injection
Procedure: as §2
(§5) Prior to small animal PET/CT imaging, mice were injected intravenously (tail vein) with ^64Cu-CB-TE1A1P-LLP2A (0.9 MBq (SA: 37 MBq/µg)). At 2 h post injection, mice were anaesthetized with 1–2% isoflurane and imaged with small animal PET (Focus 220 or Inveon (Siemens Medical Solutions, Knoxville,TN)), while the CT images were acquired with the Inveon. Static images were collected for 30 min and co-registered using the Inveon Research Workstation (IRW) software (Siemens Medical Solutions, Knoxville,TN). PET images were re-constructed with the maximum a posteriori (MAP) algorithm. The analysis of the small animal PET images was done using the IRW software. Regions of interest (ROI) were selected from PET images using CT anatomical guidelines and the activity associated with them was measured with IRW software. Maximum standard uptake values (SUVs) for both experiments were calculated using SUV = ([nCi/mL]x[animal weight (g)]/[injected dose (nCi)]). A set of mice was also imaged at 24 h post injection.
(§6) To test the ability of ^64Cu-CB-TE1A1P-LLP2A to image MM, small animal PET/CT imaging was conducted in KaLwRij mice bearing 5TGM1 murine myeloma tumors. The following i.p. and s.c. 5TGM1 models were used for the proof-of-principle imaging studies: 1) a non-matrigel assisted s.c. (plasmacytoma) tumor in the flank of the mouse (Figure 4B); 2) a matrigel assisted s.c. tumor in the flank of the mouse (Figure 4C); and 3) tumor cells injected in the peritoneal (i.p.) cavity (Figure 4D). Figure 4 contains […] (B-D) representative maximum intensity projection (MIP) small animal PET images using ^64Cu-CB-TE1A1P-LLP2A (0.9 MBq, 0.05 µg, 27 pmol, SA: 37 MBq/µg) at 2 h post injection in the various models compared to a non-tumor-bearing control mouse (Figure 4A). […] The SUV of the tumor shown in Figure 4D was not determined due to the large tumor size and overlap with the spleen and bladder. The heterogeneous distribution of the imaging agent in Figure 4D likely corresponds with the heterogeneity of the tumor mass. The uptake of ^64Cu-CB-TE1A1P-LLP2A in i.p. tumors was determined to be 14.9±2.6%ID/g by post PET biodistribution (2 h post injection). […] We are currently investigating the imaging of myeloma induced spleen pathology (splenomegaly) in orthotopic (i.v.) 5TGM1 mouse models of MM.

[4] = as above; format: in vivo, mouse; settings: KaLwRij, mouse, iv, total radioactivity
Procedure: as §2, §5, §6

RPMI-8226 cells = test: In vitro cell uptake assay, RPMI-8226 cells; format: cell-based, human; settings: 0.1 nM tracer, 37°C, 60 min, 1 mM Mn2+, ~200-fold excess LLP2A, P<0.0001
Procedure: as §1
Binding of ^64Cu-CB-TE1A1P-LLP2A was evaluated in human MM cell line RPMI-8226 in vitro.

[5] = molecular target: T1, VLA-4 (α4β1 integrin) on 5TGM1 murine myeloma cells (Mus musculus, UniProt P09055+Q00651); test: In vitro saturation binding assay on 5TGM1 whole cells; settings: tracer 0.5–15.5 nM, 2 h at 4°C, 1 mM Mn2+, N = 3
T1 construct: was incubated with ∼250,000 5TGM1 (∼ 0.41 mg protein) whole cells; endogenous in cells; host or cells: 5TGM1 murine myeloma cells (whole cells)
T1 sequence (Q00651 41-1039): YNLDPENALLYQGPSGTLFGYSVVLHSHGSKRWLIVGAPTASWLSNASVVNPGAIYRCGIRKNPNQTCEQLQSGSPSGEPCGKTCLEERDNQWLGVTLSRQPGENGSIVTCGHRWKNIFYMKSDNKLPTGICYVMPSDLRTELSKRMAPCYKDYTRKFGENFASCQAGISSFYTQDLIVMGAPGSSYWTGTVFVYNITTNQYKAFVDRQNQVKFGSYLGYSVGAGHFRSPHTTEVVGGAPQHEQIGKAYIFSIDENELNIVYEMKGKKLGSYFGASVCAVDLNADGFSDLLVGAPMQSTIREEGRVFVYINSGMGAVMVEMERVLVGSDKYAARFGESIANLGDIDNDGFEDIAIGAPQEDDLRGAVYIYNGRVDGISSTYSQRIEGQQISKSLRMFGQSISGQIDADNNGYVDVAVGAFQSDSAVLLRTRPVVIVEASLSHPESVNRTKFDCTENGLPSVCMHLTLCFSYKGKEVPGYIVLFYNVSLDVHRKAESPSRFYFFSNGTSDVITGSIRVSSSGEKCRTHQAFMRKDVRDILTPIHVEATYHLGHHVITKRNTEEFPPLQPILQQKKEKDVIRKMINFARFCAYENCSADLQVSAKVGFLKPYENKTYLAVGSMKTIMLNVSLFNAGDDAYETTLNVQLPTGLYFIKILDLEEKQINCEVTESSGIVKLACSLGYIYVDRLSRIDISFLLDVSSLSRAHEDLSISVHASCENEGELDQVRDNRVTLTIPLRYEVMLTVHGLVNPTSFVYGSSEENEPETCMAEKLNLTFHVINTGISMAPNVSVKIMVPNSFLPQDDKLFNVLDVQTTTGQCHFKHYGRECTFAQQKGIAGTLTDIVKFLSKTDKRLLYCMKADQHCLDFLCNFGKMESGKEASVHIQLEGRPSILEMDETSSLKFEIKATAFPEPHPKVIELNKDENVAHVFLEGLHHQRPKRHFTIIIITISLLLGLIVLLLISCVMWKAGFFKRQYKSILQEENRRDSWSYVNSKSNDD
T1 sequence (P09055 21-798): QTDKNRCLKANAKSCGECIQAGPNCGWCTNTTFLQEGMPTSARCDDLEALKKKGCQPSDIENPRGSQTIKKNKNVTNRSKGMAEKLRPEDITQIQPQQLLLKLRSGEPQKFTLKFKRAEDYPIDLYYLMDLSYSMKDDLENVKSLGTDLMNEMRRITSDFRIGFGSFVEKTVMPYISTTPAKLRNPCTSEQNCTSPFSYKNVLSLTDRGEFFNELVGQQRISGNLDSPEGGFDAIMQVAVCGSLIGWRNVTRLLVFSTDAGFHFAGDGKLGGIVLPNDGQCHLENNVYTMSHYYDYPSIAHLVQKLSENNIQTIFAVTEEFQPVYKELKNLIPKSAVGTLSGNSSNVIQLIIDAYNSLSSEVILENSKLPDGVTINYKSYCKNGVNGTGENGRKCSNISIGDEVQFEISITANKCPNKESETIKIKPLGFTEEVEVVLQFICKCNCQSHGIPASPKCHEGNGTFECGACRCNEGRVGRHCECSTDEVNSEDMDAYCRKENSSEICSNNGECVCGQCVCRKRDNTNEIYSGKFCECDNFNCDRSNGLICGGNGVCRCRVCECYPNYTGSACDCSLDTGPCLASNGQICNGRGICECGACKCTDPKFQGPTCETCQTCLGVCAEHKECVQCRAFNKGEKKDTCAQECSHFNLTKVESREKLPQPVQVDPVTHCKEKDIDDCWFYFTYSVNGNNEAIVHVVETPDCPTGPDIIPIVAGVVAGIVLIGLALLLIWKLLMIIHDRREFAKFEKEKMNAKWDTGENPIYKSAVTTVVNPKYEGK
Procedure: For saturation binding experiments, ^64Cu-CB-TE1A1P-LLP2A (0.5–15.5 nM) was incubated with ∼250,000 5TGM1 (∼ 0.41 mg protein) whole cells in 1.5 mL microfuge tubes for 2 h at 4°C in a total volume of 500 µL of binding medium (phosphate buffered saline [PBS], 0.1% bovine serum albumin [BSA] and 1 mM Mn^2+). The reaction tubes were put on a slow moving rotor during the 4°C incubation. After the incubation, samples were centrifuged at 1,500 rpm for 5 min, reaction buffer was removed by vacuum aspiration and the cells were washed two times with ice cold PBS. Non-specific binding was determined by conducting the assay in the presence of an excess (∼200 fold) unlabeled LLP2A. The radioactivity in the cell pellets was measured in a well counter (Packard II gamma counter). The specific binding was obtained by the subtraction of non-specific binding from total binding. The dissociation constant (Kd) and receptor density (Bmax) were estimated from the non-linear fitting of the specific binding versus the concentration of ^64Cu-CB-TE1A1P-LLP2A using Prism software (GraphPad, San Diego, CA).
The in vitro binding affinity of ^64Cu-CB-TE1A1P-LLP2A was investigated by determining the equilibrium dissociation constant (Kd) and the maximum specific binding (Bmax) of the radiolabeled conjugate to 5TGM1 cells in saturation binding assays. […]

Question: What does the source list for `Cc1ccccc1NC(=O)Nc1ccc(CC(=O)N[C@@H](CCCCNC(=O)/C=C/c2cccnc2)C(=O)N[C@@H](CCCC(=O)O)C(=O)NC2(C(=O)NCCOCCOCCNC(=O)CCC(=O)NCCOCCOCCNC(=O)CCC(=O)N[C@@H](CCCCNC(=O)CN3CCCN4CCN(CCCN(CP(=O)(O)O)CC4)CC3)C(N)=O)CCCCC2)cc1` [64Cu-CB-TE1A1P-LLP2A, metal not drawn]?
Answer: Cell uptake (internalized + surface-bound), block vs. non-block (5TGM1 cells; 0.1 nM tracer, 60 min, 37°C, PBS/0.1% BSA/1 mM Mn2+, with and without ~200-fold excess LLP2A, P<0.0001): receptor specific uptake; also recorded: significantly different; also recorded: significantly reduced; Cell uptake in the absence of receptor activating cation Mn2+ (5TGM1 cells; without Mn2+, data not shown): much lower binding; Uptake in tumor, spleen and bone in the presence of blocking agent (5TGM1 tumors [1]): significantly reduced; tissue uptake at 2 h ([2]; i.v., 0.01 µg, 0.2 MBq, read-out: Tumor uptake (s.c. 5TGM1)): 12 ± 4.5 %ID/g; tissue uptake at 2 h ([2]; spleen, read-out: Spleen uptake): 8.8 ± 1 %ID/g; Spleen SUV, non-tumor bearing mouse (5TGM1 tumors [3]; non-tumor KaLwRij control mouse): 2.2; Reduction in tumor SUV in the presence of blocking agent (5TGM1 tumors [3]; ~200-fold excess LLP2A, P<0.05): 3 fold; Tumor SUV, early stage non-palpable s.c. 5TGM1 tumor without matrigel (5TGM1 tumors [3]; representative mouse, Figure 4B): 2.24; Tumor SUV, matrigel assisted s.c. 5TGM1 tumor (5TGM1 tumors [3]; representative mouse, Figure 4C): 6.2; SUV at 2 h ([4]; spleen, 0.05 ug, 2 h post injection, 5TGM1 tumor bearing mice, read-out: Spleen SUV, tumor bearing mice): 3.3 SUV; tissue to tissue ratio at 2 h ([4]; tumor and muscle, 0.9 MBq, 2 h post injection, calculated from MIP image SUVs): 28 ± 6; tissue to tissue ratio at 24 h ([4]; tumor and muscle, 0.9 MBq, 24 h post injection, calculated from MIP image SUVs): 161 ± 41; SUV at 2 h ([4]; tumor, 0.05 ug, 2 h post injection, 0.9 MBq, 0.05 µg, 27 pmol, 5TGM1 tumors, mean±SD, N = 4, read-out: Tumor SUV (averaged maximum SUV from MIP PET images), no block): 6.2 ± 1.1 SUV; SUV at 2 h ([4]; tumor, 2 h post injection, ~200-fold excess LLP2A, mean±SD, N = 4, P<0.05, read-out: Tumor SUV in the presence of blocking agent): 2.3 ± 0.4 SUV; Cell uptake in RPMI-8226 cells, with vs. without excess LLP2A (RPMI-8226 cells): significantly reduced; also recorded: significantly blocked; Bmax (maximum specific binding, receptor density) [5]: 136 pmol/mg
